# Measured values taken from publication doi:10.1101/2022.06.27.497739.
# Where two headings read alike, the source gives them in different places.
# Columns and labels:
# [1] = target: Rpt1-I191AzF-Cy3 base (budding yeast (S. cerevisiae)) (UniProt P33299); experiment: FRET or BRET
# [2] = target: Rpt1-I191AzF-Cy3 base (budding yeast (S. cerevisiae)) (UniProt P33299); experiment: FRET or BRET; remark: listed apart in the source
substance,measurement,setting,value
polyubiquitinated titin-I27^V15P-Tail substrate labeled with Cy5 on its unstructured initiation domain (from UniProt P0CG63 1-76),time constant (τ) of tail engagement,[1],10.4 s
same,time constant (τ) of tail engagement,[2],16.4 s
